What was measured:
[1] = biological target: L127E ArdA (Streptococcus faecalis (Tn916 conjugative transposon)); experiment: AUC; sedimentation equilibrium at 15 μM (monomers); 17 000, 27 000 and 35 000 r.p.m.; 20 °C; 200 mM NaCl, 20 mM Tris, 20 mM MES, 1 mM TCEP, pH 6.5; SEDPHAT; dimer to monomers
[2] = biological target: EcoKI Type I RM enzyme (E. coli (endogenous in E. coli NM1049(DE3))) (UniProt P08956)
[3] = biological target: WT ORF18 ArdA (Streptococcus faecalis (Tn916 conjugative transposon)); experiment: AUC; sedimentation equilibrium at 15 μM (monomers); 17 000, 27 000 and 35 000 r.p.m.; 20 °C; 200 mM NaCl, 20 mM Tris, 20 mM MES, 1 mM TCEP, pH 6.5; SEDPHAT; dimer to monomers
[4] = biological target: WT ORF18 ArdA (Streptococcus faecalis (Tn916 conjugative transposon)); experiment: AUC; sedimentation equilibrium at 3.0 μM and 0.6 μM (monomers); 17 000, 27 000 and 35 000 r.p.m.; 20 °C; 200 mM NaCl, 20 mM Tris, 20 mM MES, 1 mM TCEP, pH 6.5; SEDPHAT

Row | Substance | Kd [1] [µM] | stoichiometry N [1] | antimodification in vivo: titre ratio of phage λv.0 recovered from E. coli NM1049(DE3) expressing the ArdA protein (WT ORF18 ArdA 122.0; vector 0.9) [2] | stoichiometry N [3] | stoichiometry N [4]
1 | L127E ArdA (natural protein) | 10 | 2 | 1 | – | –
2 | WT ORF18 ArdA (natural protein) | – | – | – | 2 | 2

— article PMC3906837
